Data set [1] has as its target T1, GST-HERC2 (2540–2700th) (human, UniProt O95714 2540-2700).
T1 construct: also called HECT and RLD domains-containing E3 ubiquitin protein ligase 2; not shown: GST, N-terminal, kept
T1 sequence (looked up): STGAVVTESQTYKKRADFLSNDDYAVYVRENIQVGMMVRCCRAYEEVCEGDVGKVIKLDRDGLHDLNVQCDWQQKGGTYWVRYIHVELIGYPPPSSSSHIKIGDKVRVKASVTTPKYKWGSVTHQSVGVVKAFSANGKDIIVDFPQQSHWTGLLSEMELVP
In words: pull-down; GST pull-down of HERC2 with Fe-S-bound NCOA4 (383–522nd): freshly purified or reconstituted. The following applies: both partners purified.

For data set [2], the target named is T2, GST-tagged FTH (human, UniProt P02794 1-183).
T2 construct: ferritin heavy chain 1 (FTH), human; also called GST-FTH; ferritin heavy chain 1; not shown: GST, N-terminal, kept
T2 sequence (P02794 whole entry): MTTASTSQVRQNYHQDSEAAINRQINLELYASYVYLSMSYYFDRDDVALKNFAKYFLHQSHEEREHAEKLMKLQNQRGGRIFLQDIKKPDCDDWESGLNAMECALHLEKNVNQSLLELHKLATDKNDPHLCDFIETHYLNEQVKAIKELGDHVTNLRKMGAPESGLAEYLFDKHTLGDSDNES
The data set can be described thus: pull-down; His-pulldown; His-tagged NCOA4 (383–522nd) WT or mutants and GST-tagged FTH, each expressed in E. coli and purified; read by immunoblotting. The following applies: both partners purified.

Data set [3] concerns the molecule itself. In words: nonreducing gel electrophoresis; purified his-tagged NCOA4 (383–522nd) WT or mutants on a nonreducing gel, with or without β-ME (10 mM) or DTT (5 mM); the reductants converted the dimer into monomers.

B1: his-tagged NCOA4 (383–522nd) recombinant protein, WT (domain or fragment, human, UniProt Q13772-1 383-522, looked up)
chain: SMVTEDWLVQNHQDPCKVEEVCRANEPCTSFAECVCDENCEKEALYKWLLKKEGKDKNGMPVEPKPEPEKHKDSLNMWLCPRKEVIEQTKAPKAMTPSRIADSFQVIKNSPLSEWLIRPPYKEGSPKEVPGTEDRAGKQK
notes: Expressed from pQE80L; also called purified NCOA4; not shown: His6, N-terminal, kept
With B1, the binding result in data set [1] and in data set [2] was “binds” each time.

B2: his-tagged NCOA4 (383–522nd) C422A (domain or fragment, human, UniProt Q13772-1 383-522, looked up)
chain: SMVTEDWLVQNHQDPCKVEEVCRANEPCTSFAECVCDENAEKEALYKWLLKKEGKDKNGMPVEPKPEPEKHKDSLNMWLCPRKEVIEQTKAPKAMTPSRIADSFQVIKNSPLSEWLIRPPYKEGSPKEVPGTEDRAGKQK
For the molecule B2, the binding result in data set [3] is listed as “binds”.

B3: his-tagged NCOA4 (383–522nd) C416A (domain or fragment, human, UniProt Q13772-1 383-522, looked up)
chain: SMVTEDWLVQNHQDPCKVEEVCRANEPCTSFAEAVCDENCEKEALYKWLLKKEGKDKNGMPVEPKPEPEKHKDSLNMWLCPRKEVIEQTKAPKAMTPSRIADSFQVIKNSPLSEWLIRPPYKEGSPKEVPGTEDRAGKQK
Regarding B3, the binding result in data set [3] is recorded as “binds”.

B4: his-tagged NCOA4 (383–522nd) C404A (domain or fragment, human, UniProt Q13772-1 383-522, looked up)
chain: SMVTEDWLVQNHQDPCKVEEVARANEPCTSFAECVCDENCEKEALYKWLLKKEGKDKNGMPVEPKPEPEKHKDSLNMWLCPRKEVIEQTKAPKAMTPSRIADSFQVIKNSPLSEWLIRPPYKEGSPKEVPGTEDRAGKQK
B4: in data set [3], the binding result is listed as “binds”.

B5: his-tagged NCOA4 (383–522nd) C410A (domain or fragment, human, UniProt Q13772-1 383-522, looked up)
chain: SMVTEDWLVQNHQDPCKVEEVCRANEPATSFAECVCDENCEKEALYKWLLKKEGKDKNGMPVEPKPEPEKHKDSLNMWLCPRKEVIEQTKAPKAMTPSRIADSFQVIKNSPLSEWLIRPPYKEGSPKEVPGTEDRAGKQK
As for B5, the binding result in data set [3] is “binds”.

B6: his-tagged NCOA4 (383–522nd) C462A (domain or fragment, human, UniProt Q13772-1 383-522, looked up)
chain: SMVTEDWLVQNHQDPCKVEEVCRANEPCTSFAECVCDENCEKEALYKWLLKKEGKDKNGMPVEPKPEPEKHKDSLNMWLAPRKEVIEQTKAPKAMTPSRIADSFQVIKNSPLSEWLIRPPYKEGSPKEVPGTEDRAGKQK
With B6, in data set [3], the binding result is listed as “binds”.

B7: his-tagged NCOA4 (383–522nd) C418A (domain or fragment, human, UniProt Q13772-1 383-522, looked up)
chain: SMVTEDWLVQNHQDPCKVEEVCRANEPCTSFAECVADENCEKEALYKWLLKKEGKDKNGMPVEPKPEPEKHKDSLNMWLCPRKEVIEQTKAPKAMTPSRIADSFQVIKNSPLSEWLIRPPYKEGSPKEVPGTEDRAGKQK
Consider B7, for which, in data set [3], the binding result is “binds”.

B8: his-tagged NCOA4 (383–522nd) C398S (domain or fragment, human, UniProt Q13772-1 383-522, looked up)
chain: SMVTEDWLVQNHQDPSKVEEVCRANEPCTSFAECVCDENCEKEALYKWLLKKEGKDKNGMPVEPKPEPEKHKDSLNMWLCPRKEVIEQTKAPKAMTPSRIADSFQVIKNSPLSEWLIRPPYKEGSPKEVPGTEDRAGKQK
notes: C398A was insoluble, so C398S was made in its place
For the molecule B8, in data set [3], the binding result was “binds”.

B9: his-tagged NCOA4 (383–522nd) 4C > A (domain or fragment, human, UniProt Q13772-1 383-522, looked up)
chain: SMVTEDWLVQNHQDPCKVEEVARANEPATSFAEAVCDENAEKEALYKWLLKKEGKDKNGMPVEPKPEPEKHKDSLNMWLCPRKEVIEQTKAPKAMTPSRIADSFQVIKNSPLSEWLIRPPYKEGSPKEVPGTEDRAGKQK
notes: also called four cysteine residues substitution by alanine; not shown: His6, N-terminal, kept
For the molecule B9, in data set [2], the binding result is recorded as “binds”.
